# Source: the supplement of paper PMC10567573
# B1: RSPH3 (parent)
# chain: FIPAKTGKDVATQILEGELFDFDL
# B2: SAT2 (parent)
# chain: LTEAEGWHFFCFQGEATRKLAGK
# Variants of: B1
# Assay: protein stability index of a GFP-peptide fusion (GPS, HEK-293T) (PSI 1-6); higher = more stable
# Conditions: c terminus: a fixed tail appended
# 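Note: lentivirally expressed fusions sorted by FACS into six bins by GFP to DsRed ratio, PSI derived from sequencing read proportions per bin multiplied by bin number.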
row,Variant,protein stability index
1,FIPAKFGKDVATQILEGELFDFDL [T6F],2.08
2,FIPAKEGKDVATQILEGELFDFDL [T6E],2.43
3,FIPAKCGKDVATQILEGELFDFDL [T6C],1.29
4,FIPAKAGKDVATQILEGELFDFDL [T6A],2
5,FIPAKHGKDVATQILEGELFDFDL [T6H],1.82
6,FIPAKKGKDVATQILEGELFDFDL [T6K],2.22
7,FIPAKDGKDVATQILEGELFDFDL [T6D],2.46
8,FIPAKGGKDVATQILEGELFDFDL [T6G],2.12
9,FIPAKIGKDVATQILEGELFDFDL [T6I],2.53

# Variants of: B2
# Assay: as above
# Conditions: c terminus: native
row,Variant,protein stability index
1,LTEAEGWHFFCFQGEATRELAGK [K19E],2.68
2,LTEAEGWHFFCFQGEATRQLAGK [K19Q],1.69
3,LTEAEGWHFFCFQGEATRCLAGK [K19C],2.41
4,LTEAEGWHFFCFQGEATRALAGK [K19A],2.35
5,LTEAEGWHFFCFQGEATRDLAGK [K19D],2.76
6,LTEAEGWHFFCFQGEATRWLAGK [K19W],2
7,LTEAEGWHFFCFQGEATRILAGK [K19I],2.39
8,LTEAEGWHFFCFQGEATRLLAGK [K19L],2.93
9,LTEAEGWHFFCFQGEATRFLAGK [K19F],1.94
10,LTEAEGWHFFCFQGEATRGLAGK [K19G],2.25
11,LTEAEGWHFFCFQGEATRNLAGK [K19N],2.93
12,LTEAEGWHFFCFQGEATRYLAGK [K19Y],2.11
13,LTEAEGWHFFCFQGEATRMLAGK [K19M],1.89
14,LTEAEGWHFFCFQGEATRHLAGK [K19H],2.58
15,LTEAEGWHFFCFQGEATRRLAGK [K19R],2.23
16,LTEAEGWHFFCFQGEATRTLAGK [K19T],2.05
17,LTEAEGWHFFCFQGEATRPLAGK [K19P],2.1
18,LTEAEGWHFFCFQGEATVKLAGK [R18V],1.5
19,LTEAEGWHFFCFQGEATPKLAGK [R18P],2.58
20,LTEAEGWHFFCFQGEATQKLAGK [R18Q],1.87
21,LTEAEGWHFFCFQGEATYKLAGK [R18Y],2.21
22,LTEAEGWHFFCFQGEATTKLAGK [R18T],2.03

row,Variant,protein stability index
1,LTEAEGWHFFCFQGEATRKLAYK [G22Y],2.39
2,LTEAEGWHFFCFQGEATRKLAWK [G22W],2.17
3,LTEAEGWHFFCFQGEATRKLAQK [G22Q],3.22
4,LTEAEGWHFFCFQGEATRKLAAK [G22A],1.5
5,LTEAEGWHFFCFQGEATRKLADK [G22D],2.64
6,LTEAEGWHFFCFQGEATRKLAIK [G22I],1.91
7,LTEAEGWHFFCFQGEATRKLAFK [G22F],1.8
8,LTEAEGWHFFCFQGEATRKLANK [G22N],2.67
9,LTEAEGWHFFCFQGEATRKLARK [G22R],3.52
10,LTEAEGWHFFCFQGEATRKLAMK [G22M],1.6
11,LTEAEGWHFFCFQGEATRKLATK [G22T],2.27
12,LTEAEGWHFFCFQGEATRKLAPK [G22P],2.47
13,LTEAEGWHFFCFQGEATRKLAKK [G22K],2.7
14,LTEAEGWHFFCFQGEATRKLALK [G22L],1.81
15,LTEAEGWHFFCFQGEATRKLACK [G22C],1.07
16,LTEAEGWHFFCFQGEATRKLAHK [G22H],2.48
17,LTEAEGWHFFCFQGEATRKLAEK [G22E],2.54
18,LTEAEGWHFFCFQGEATRKLASK [G22S],1.8
19,LTEAEGWHFFCFQGEATRKLAVK [G22V],3.23
20,LTEAEGWHFFCFQGEATRKLHGK [A21H],3.24
21,LTEAEGWHFFCFQGEATRKLKGK [A21K],2.5
22,LTEAEGWHFFCFQGEATRKLNGK [A21N],2.55

row,Variant,protein stability index
1,LTEAEGWHFFCFQGEATRKLDGK [A21D],2.73
2,LTEAEGWHFFCFQGEATRKLMGK [A21M],1.91
3,LTEAEGWHFFCFQGEATRKLRGK [A21R],1.71
4,LTEAEGWHFFCFQGEATRKLLGK [A21L],1.33
5,LTEAEGWHFFCFQGEATRKLCGK [A21C],2.57
6,LTEAEGWHFFCFQGEATRKLIGK [A21I],3.52
7,LTEAEGWHFFCFQGEATRKLPGK [A21P],1.99
8,LTEAEGWHFFCFQGEATRKLYGK [A21Y],2
9,LTEAEGWHFFCFQGEATRKLEGK [A21E],2.25
10,LTEAEGWHFFCFQGEATRKLWGK [A21W],2.34
11,LTEAEGWHFFCFQGEATRKLSGK [A21S],2.16
12,LTEAEGWHFFCFQGEATRKLFGK [A21F],1.77
13,LTEAEGWHFFCFQGEATRKLTGK [A21T],2.71
14,LTEAEGWHFFCFQGEATRKLQGK [A21Q],3.17
15,LTEAEGWHFFCFQGEATRKLAGV [K23V],1.49
16,LTEAEGWHFFCFQGEATRKLAGQ [K23Q],2.81
17,LTEAEGWHFFCFQGEATRKLAGI [K23I],2.17
18,LTEAEGWHFFCFQGEATRKLAGS [K23S],2
19,LTEAEGWHFFCFQGEATRKLAGR [K23R],1.51
20,LTEAEGWHFFCFQGEATRKLAGN [K23N],2.85
21,LTEAEGWHFFCFQGEATRKLAGM [K23M],1.01
22,LTEAEGWHFFCFQGEATRKLAGC [K23C],2.15

row,Variant,protein stability index
1,LTEAEGWHFFCFQGEATRKLAGD [K23D],2.06
2,LTEAEGWHFFCFQGEATRKLAGH [K23H],1.49
3,LTEAEGWHFFCFQGEATRKLAGP [K23P],2.41
4,LTEAEGWHFFCFQGEATRKLAGT [K23T],2.33
5,LTEAEGWHFFCFQGEATRKLAGL [K23L],1.86
6,LTEAEGWHFFCFQGEATRKTAGK [L20T],3.52
7,LTEAEGWHFFCFQGEATRKIAGK [L20I],2.34
8,LTEAEGWHFFCFQGEATRKQAGK [L20Q],3.29
9,LTEAEGWHFFCFQGEATRKSAGK [L20S],2.94
10,LTEAEGWHFFCFQGEATRKKAGK [L20K],3.3
11,LTEAEGWHFFCFQGEATRKFAGK [L20F],1.97
12,LTEAEGWHFFCFQGEATRKPAGK [L20P],3.22
13,LTEAEGWHFFCFQGEATRKEAGK [L20E],3.6
14,LTEAEGWHFFCFQGEATRKVAGK [L20V],1.98
15,LTEAEGWHFFCFQGEATRKDAGK [L20D],2.99
16,LTEAEGWHFFCFQGEATRKNAGK [L20N],3.41
17,LTEAEGWHFFCFQGEATRKAAGK [L20A],2.36
18,LTEAEGWHFFCFQGEATRKRAGK [L20R],3.66
19,LTEAEGWHFFCFQGEATRKGAGK [L20G],3.47
20,LTEAEGWHFFCFQGEATRKHAGK [L20H],2.64
21,LTEAEGWHFFCFQGEATRKMAGK [L20M],2.91
